In the supplement of paper PMC7877785:
± gives the uncertainty stated by the source.

Experiment: self-splicing fitness, log relative to wild type (ln ratio); higher = more splicing; Tetrahymena group I intron in knt gene, E. coli kanamycin selection, DiMSum; sequences stand for … in CUCUCU…GGAGGGAAAAGUUAUCAGGCAUGCACCUGGUAGCUAGUCUUUAAACCAAUAGAUUGCAUCGGUUUAAAAGGCAAGACCGUCAAAUUGCGGGAAAGGGGUCAACAGCCGUUCAGUACCAAGUCUCAGGGGAAACUUUGAGAUGGCCUUGCAAAGGGUAUGGUAAUAAGCUGACGGACAUGGUCCUAACCACGCAGCCAAGUCCUAAGUCAACAGAUCUUCUGUUGAUAUGGAUGCAGUUCACAGACUAAAUGUCGGUCGGGGAAGAUGUAUUCUUCUCAUAAGAUAUAGUCGGACCUCUCCUUAAUGGGAGCUAGCGGAUGAAGUGAUGCAACACUGGAGCCGCUGGGAACUAAUUUGUAUGCGAAAGUAUAUUGAUUAGUUUUGGAGUACUCGUGGUCG
Procedure, shortened: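 The eight P1ex-region nucleotides of an intron in the knt kanamycin-resistance gene on pET-22b(+) were all randomised and the library put into E. coli BL21(DE3). Six replicate transformations were grown overnight at 37°C or 30°C on LB agar with or without 25 μg/mL kanamycin, together with 100 μg/mL carbenicillin, 50 μM IPTG and 0.2% rhamnose. Colonies were pooled and amplicon-sequenced on an Illumina HiSeq 2500. Fitness from DiMSum is the error-weighted combination of wild-type-normalised replicate fold changes, kanamycin over none.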

| Sequence | self-splicing fitness (ln) (30 °C) | self-splicing fitness (ln) (37 °C) |
| --- | --- | --- |
| GGUAAGCAAUAUUACGCUCA | -0.326 ± 0.26 | -0.105 ± 0.48 |
| CGCGAGCAAUAUUACGUUUU | -4.56 ± 0.46 | -2.17 ± 0.2 |
| GGGAAGCAAUAUUACGCAAU | -2.67 ± 0.17 | -1.42 ± 0.19 |
| UUCAAGCAAUAUUACGUCAU | -2.97 ± 0.15 | -2.59 ± 0.13 |
| GAUUAGCAAUAUUACGCAGC | -2.35 ± 0.31 |  |
| UGAGAGCAAUAUUACGUUGU | -3.89 ± 0.19 | -2.91 ± 0.23 |
| GUGUAGCAAUAUUACGGAUA | -2.46 ± 0.23 | -0.0303 ± 0.17 |
| CGCGAGCAAUAUUACGAAUG | -1.9 ± 0.095 | -0.424 ± 0.13 |
| ACAUAGCAAUAUUACGCAAG | -1.9 ± 0.12 | -1.25 ± 0.2 |
| UAUCAGCAAUAUUACGCAGA | -1.57 ± 0.15 | -1.03 ± 0.1 |
| AUACAGCAAUAUUACGCGUA | -1.76 ± 0.11 | -0.809 ± 0.097 |
| AGGCAGCAAUAUUACGCGCA | -0.635 ± 0.07 | -0.0389 ± 0.098 |
| ACCGAGCAAUAUUACGCACA | -2.47 ± 0.11 | -1.67 ± 0.11 |
| CAUAAGCAAUAUUACGGCGA | -1.96 ± 0.18 | -0.178 ± 0.15 |
| UCAUAGCAAUAUUACGCAUC | -3.59 ± 0.3 | -3.1 ± 0.33 |
| AUAAAGCAAUAUUACGGAGC | -2.79 ± 0.2 | -2.21 ± 0.22 |
| CAUUAGCAAUAUUACGUCAG | -0.381 ± 0.091 | -0.0898 ± 0.098 |
| AGCUAGCAAUAUUACGGGUU | -2.74 ± 0.14 | -2.12 ± 0.18 |
| AUGCAGCAAUAUUACGCCAU | -1.53 ± 0.18 | -2.28 ± 0.35 |
| UCGAAGCAAUAUUACGACAA | -1.59 ± 0.14 | -1.07 ± 0.15 |
| UGGGAGCAAUAUUACGAGCG | -1.56 ± 0.14 | -0.816 ± 0.15 |
| UGCCAGCAAUAUUACGUGGU | -3.85 ± 0.21 | -2.83 ± 0.19 |
| GCUAAGCAAUAUUACGUCGA | -1.21 ± 0.11 | -0.619 ± 0.15 |
| CGUUAGCAAUAUUACGAGUU | -2.98 ± 0.36 | -2.27 ± 0.45 |
| UUUCAGCAAUAUUACGCCUG | -1.95 ± 0.12 | -1.02 ± 0.11 |

| Sequence | self-splicing fitness (ln) (30 °C) | self-splicing fitness (ln) (37 °C) |
| --- | --- | --- |
| AGUAAGCAAUAUUACGCAAA | -2.45 ± 0.35 | -1.46 ± 0.25 |
| CUGAAGCAAUAUUACGCCGA | -1.44 ± 0.22 |  |
| CAAAAGCAAUAUUACGACAG | -0.12 ± 0.062 | -0.154 ± 0.083 |
| UGGCAGCAAUAUUACGUACU | 0.384 ± 0.091 | 0.181 ± 0.12 |
| UGGAAGCAAUAUUACGCAAC | -3.31 ± 0.32 | -2.05 ± 0.27 |
| CGCUAGCAAUAUUACGUAUC | -3.84 ± 0.33 | -2.76 ± 0.31 |
| AGGGAGCAAUAUUACGGCAA | -3.52 ± 0.48 | -1.8 ± 0.27 |
| ACACAGCAAUAUUACGCUUU | -2.75 ± 0.14 | -1.51 ± 0.098 |
| CUUGAGCAAUAUUACGGGUU | -2.91 ± 0.32 | -2.92 ± 0.28 |
| AAACAGCAAUAUUACGUCCG | -1.89 ± 0.082 | -0.645 ± 0.1 |
| CUCCAGCAAUAUUACGAAUU | -3.27 ± 0.18 | -2.18 ± 0.2 |
| AGCCAGCAAUAUUACGUAUC | -2.85 ± 0.15 | -2.21 ± 0.23 |
| CAGAAGCAAUAUUACGCCUU | -1.78 ± 0.087 | -0.677 ± 0.11 |
| GGCUAGCAAUAUUACGUGUG | -0.503 ± 0.085 | -0.362 ± 0.083 |
| CACUAGCAAUAUUACGCCCC | -0.891 ± 0.38 | -0.252 ± 0.47 |
| CAUUAGCAAUAUUACGGGCA | -2.73 ± 0.27 | -1.1 ± 0.16 |
| AAUAAGCAAUAUUACGAUAU | -1.71 ± 0.11 | -0.747 ± 0.13 |
| CGAAAGCAAUAUUACGCUGA | -3.09 ± 0.22 | -1.54 ± 0.19 |
| GAAUAGCAAUAUUACGCGAG | -1.19 ± 0.087 | -0.803 ± 0.096 |
| UCAAAGCAAUAUUACGUCAU | -2.36 ± 0.14 | -2.71 ± 0.2 |
| UACCAGCAAUAUUACGACCA | -0.314 ± 0.081 | 0.106 ± 0.1 |
| CCAGAGCAAUAUUACGACUC | -1.93 ± 0.32 | -1.12 ± 0.43 |
| AUAGAGCAAUAUUACGGCCC | -1.68 ± 0.17 | -0.799 ± 0.3 |
| ACAAAGCAAUAUUACGGACA | -1.29 ± 0.13 | -0.782 ± 0.11 |
| CAUUAGCAAUAUUACGAUUU | -2.32 ± 0.13 | -1.56 ± 0.15 |

| Sequence | self-splicing fitness (ln) (30 °C) | self-splicing fitness (ln) (37 °C) |
| --- | --- | --- |
| CCUCAGCAAUAUUACGAUCA | -3.65 ± 0.22 | -2.96 ± 0.26 |
| GAGAAGCAAUAUUACGUGCU | -2.51 ± 0.21 | -0.848 ± 0.17 |
| GUCCAGCAAUAUUACGUCUG | -3.8 ± 0.47 | -2.47 ± 0.33 |
| UCAUAGCAAUAUUACGCACU | -3.19 ± 0.25 | -3.18 ± 0.32 |
| GCCCAGCAAUAUUACGGGCG | -2.53 ± 0.091 | -1.7 ± 0.099 |
| GCAUAGCAAUAUUACGUGAC | -2.49 ± 0.2 | -0.677 ± 0.14 |
| CACUAGCAAUAUUACGGAUC | -1.79 ± 0.19 |  |
| AACGAGCAAUAUUACGUAAA | -3 ± 0.24 | -2.49 ± 0.33 |
| GUGGAGCAAUAUUACGGGGA | -3.12 ± 0.44 | -2.65 ± 0.4 |
| UUUCAGCAAUAUUACGCUGG | -3.94 ± 0.3 | -1.77 ± 0.33 |
| GGGAAGCAAUAUUACGGUCU | -1.58 ± 0.086 | 0.382 ± 0.11 |
| CGGAAGCAAUAUUACGGGGA | -3.79 ± 0.26 | -2.65 ± 0.31 |
| UCGUAGCAAUAUUACGAUUG | -2.6 ± 0.15 | -2.92 ± 0.28 |
| CUUGAGCAAUAUUACGAACU | -4.03 ± 0.46 | -2.09 ± 0.32 |
| UUAUAGCAAUAUUACGAGAA |  | -1.51 ± 0.38 |
| CCGCAGCAAUAUUACGAGAC | -2.24 ± 0.22 |  |
| GUGUAGCAAUAUUACGUGGA | -3.41 ± 0.3 | -2.04 ± 0.23 |
| GGUUAGCAAUAUUACGAAUU | 0.0573 ± 0.13 | -0.482 ± 0.16 |
| UUCCAGCAAUAUUACGCGCG | -0.776 ± 0.068 | -0.688 ± 0.099 |
| UAGGAGCAAUAUUACGAUUU | -2.44 ± 0.15 | -1.4 ± 0.24 |
| CGCAAGCAAUAUUACGGUUG | -2.25 ± 0.098 | -1.18 ± 0.096 |
| GUCUAGCAAUAUUACGUGUC | -0.8 ± 0.089 | -0.0601 ± 0.086 |
| UGGCAGCAAUAUUACGCCUG | -1.24 ± 0.097 | -0.681 ± 0.13 |
| AACUAGCAAUAUUACGGAAA | -2.54 ± 0.2 | -0.697 ± 0.13 |
| UCAAAGCAAUAUUACGGCUU | -5.11 ± 0.45 | -2.32 ± 0.2 |

| Sequence | self-splicing fitness (ln) (30 °C) | self-splicing fitness (ln) (37 °C) |
| --- | --- | --- |
| CUUUAGCAAUAUUACGUGGG | -3.1 ± 0.17 | -2.96 ± 0.27 |
| UUUGAGCAAUAUUACGAACA | -2.9 ± 0.23 | -2.15 ± 0.21 |
| UUUCAGCAAUAUUACGGUGU | -2.91 ± 0.13 | -2.15 ± 0.18 |
| AACGAGCAAUAUUACGUAGC | -3.51 ± 0.19 | -2.44 ± 0.17 |
| UGGUAGCAAUAUUACGGCUU | 0.166 ± 0.18 | -0.0657 ± 0.2 |
| UACAAGCAAUAUUACGCCUA | 0.14 ± 0.067 | -0.0341 ± 0.071 |
| GGACAGCAAUAUUACGAUAC | -0.672 ± 0.084 | -0.478 ± 0.098 |
| AUUCAGCAAUAUUACGUUCG | -0.646 ± 0.06 | -0.898 ± 0.094 |
| CGGUAGCAAUAUUACGUCCA | 0.282 ± 0.15 | 0.197 ± 0.23 |
| CGAAAGCAAUAUUACGCCAA | -2.65 ± 0.2 | -2.41 ± 0.22 |
| UAGAAGCAAUAUUACGAGGC |  | -2.21 ± 0.42 |
| GAUAAGCAAUAUUACGCCUC |  | -2.35 ± 0.42 |
| UGAAAGCAAUAUUACGAGGG | -2.91 ± 0.17 | -3.6 ± 0.42 |
| AGACAGCAAUAUUACGACGU | 0.00817 ± 0.047 | -0.185 ± 0.051 |
| UAAUAGCAAUAUUACGAGUU | -2.79 ± 0.23 | -2.31 ± 0.27 |
| GAUGAGCAAUAUUACGGAUA | -3.94 ± 0.42 | -2.52 ± 0.26 |
| ACGGAGCAAUAUUACGUAGG | -3.48 ± 0.26 |  |
| UGCCAGCAAUAUUACGGUAU | -3.55 ± 0.16 | -2 ± 0.19 |
| AUCAAGCAAUAUUACGGUGU | -1.7 ± 0.076 | -1.11 ± 0.088 |
| ACGUAGCAAUAUUACGGGAA | -1.95 ± 0.2 | -3.19 ± 0.37 |
| GAUCAGCAAUAUUACGCAAU | -1.56 ± 0.1 | 0.129 ± 0.11 |
| AGUGAGCAAUAUUACGCAGG |  | -2.65 ± 0.48 |
| UGCCAGCAAUAUUACGGCGU | -3.04 ± 0.16 | -3.16 ± 0.27 |
